Columns and labels:
SEC-MALS = details: glycan lost; control: native rshACE2
[1] = Mca-Ala-Pro-Lys(Dnp) hydrolysis, spectrofluorimetry; details: glycan lost; control: native rshACE2

rshACE2 (recombinant soluble human ACE2, APN01): PNGase F (deglyco-rshACE2)
oligomerisation (SEC-MALS): no change
enzymatic_activity, percent_of_wt [1]: increases

Source: PMC8730730
